This series in a line: label from the status in PepcDB records.
Regarding “MEVFKVFATLSLVDMISGPLGSVSEGMELLGGKVSALGSRMGKLAVAMAPVALAAGVLLGTLGLAAREAIAFESAMADVAKVVNFESAGELKAMSATILDMSTRIPMAADGLAAIVAAAAQSGVARQDLTDFAEQAAKMGVAFDLTGDQAGKMMADWRAGMNLTLPRVYALADATNHLSNNMNATAPALGEVIQRVGAVGMAAGLSETQVAALGAAFLSAGASPEIASTALKKFTSTLVRGSALSKDAQAAFGALGFSVTQMAKDMQTDAQGTIFKVLQALADKPKELQMSLLTEMFGEEALGAIAPLLANMGNLSQAFDLVGDSAAYAGSMQGEFEARSRTTENALLLLGNKAKALMIVIGSYFLPVIGAVADALGGFVDMLRAAAQTAGGEFALKLVAGVSAAIVAATALSGALWLLSAAGPMLAAALAPLKAALLGLSWPMWAIIAVVGALYLAYKTNFAGIGDTLRRWWQTVSLVVRGVMAVFSTLTDGVGEIRGELATEIRAAGLEGLVASVGSVVYRVQAFFRGLWDGVSGVGDRLAVVFGPTLDRLGAVFGQLFTVLGGLGEAFFGVSAASDVSGWERFGNVIGSVVCGAVEILATAFTALLAPIEMAAGMLQFVLDLFNGVSLFDAGAKLLGTFVDGIMSMVSAPFEAAKKALDMVGKLLPHSDADEGPLSTLTASGMATLSTMGEGMTAAAPGLHDTLETALGDAVAPQIEAPATADVQPGRKTARAAQGRGVTITIGTLNLPGVTNAQDFVAQLQDFVAAYDGVPEGGLV”, the protein production entry is recorded as “failed”.

For the sequence “MEVFLKEFLLNKFFIDFFYKNQNNITIKTILVTFKVIFSICFNSSNFGLRYSKKKTLNLSELMHLVTFMLAYFLIQV”, the protein production entry is recorded as “failed”. Regarding “MEVKIEKPTPEKLKELSVEKWPIWEKEVSEFDWYYDTNETCYILEGKVEVTTEDGKKYVIEKGDLVTFPKGLRCRWKVLEPVRKHYNLF”, the protein production entry is listed as “not failed”. In the case of “MEVKVQSDDLEYVVSTVRSYINSYETDVNPLYIRFYFFESDNPLLDENFDEIRKILVPSGYIPAVIKGPENYIEVTRRPKENYRSIYVNIIMLVLTLLSTVYVGSIYAASFVRPGPYYEFYKLLYGFVFFSLPLMFILGIHETAHYLVARRYRVNASLPFFIPFPYIIGTFGAFVSLRDPIPDRKAMTEIGAAGPIAGFLASIPLMFLAQYFEKVIKPVNNVIPFQLNYPLIYKLFGIFEPVKVPVFPMVFAVWVGIFATAMNLIPAGQLDGGHIVRGLLGSRAYILNYIFLGFLFYLAIVYNYLGWLFLALFVIFLGLVHPPALNDYARIKMRDVFIGIFCLLMFIITFTPLPIKP”, the protein production entry is on record as “failed”. The entry for “MEVLRYRSRPIVGGEAEGPAVVIDSLSFYGEVDPETGVTSGGKPLAGRVAAIRRSRGSTVGSYVIYALKENGVAPLAILMERAEPIVIAGCVLAGIPLYDGLPPEFFERVRDGYRVRVHSDGLVEVLGPGQP” is “failed”. On to “MEVQETRVQTDRVLTIPNILSMARLVGVPVFLWLILRPEFGGPKSDGWALLVLALSGISDYLDGKLARRWNQISSLGRLLDPAADRLYILSTLVGLTWREILPIWLTAALLARELVLLVMVGILRRHGYPPPQVNFLGKAATFNLMYAFPLLLLSDSSGWIGSLAAIFGWAFAGWGTTLYWWAGVLYMVQVRRLVRADAVAD”, for which the protein production entry is “failed”.

On to “MEVSRALLFELGVLLAVLAVLGAVARRFALSPIPVYLLAGLSLGNGGILGVAAAGEFIATGAPIGVVLLLLALGLEFSATEFASSLRHHLPSAGVDIVLNATPGAVAGWLLGLDGVAILGLAGVTYISSSGVIARLLEDLRRLGNRETPAVLSVLVLEDFAMAAYLPLFAVLATDGSWLEAVVGMTVAIAALLGAFAASYRWGHHVGRLVTHPDSEQLLLRVLGITLIVAAVAESLHASAAVGAFLVGLTLTGETADRARMVLTPLRDLFATIFFLGIGLSVDPGKLVSMLPVALALAAVTAATKVATGMFAARREGVARRGQLRAGTALVARGEFSLIIIGLAGASIPGVAALATAYVFVMAIVGPILARYTGGGLPAAAVASN”, for which the protein production entry was “failed”. As to “MEVVRIPEFKEKTAPGAYYQQPAIDGSRPGRFYANLFDIKATPKYGMRTLAYHEGIPGHHFQVAVAMELEGQPLIRKMAPFTAYIEGWALYSERVAWELGFQQDPFDNIGRLQAELFRAVRLVVDTGIHHSRWTREQAIDYMKKNTGMSDRDVTAEIERYIVMPGQATAYKVGMMKILELREKAKQALGDKFDLRDFHDVVLKNGAVPLDILEKLVDRYIADKR”, the protein production entry is given as “failed”.

Turning to “MEWLNEPPNWSHSDQKIIVTTSPKTDFWRITHYGFIRDSGHFYFDRVSTDFVVDVKIKGNYKDLYDQAGIMIRADEQHWIKTGIEYVDGVQNLSAVVTHNYSDWSFTPLLNPPNIFQVRVERCQEAIHIAYLDEYSRYVPFRMAYFPVALDIQVGIMCASPQGNGYEVIFEDYQLTKKGEKLSLEHHHHHH”, the protein production result is “failed”. In the case of “MEWQAEQAYNHLPPLPLDSKLAELAETLPILKACIPARAALAELKQAGELLPNQGLLINLLPLLEAQGSSEIENIVTTTDKLFQYAQEDSQADPMTKEALRYRTALYQCFTQLSNRPLCVTTALEICSTIKSVQMDVRKVPGTSLTNQATGEVIYTPPAGESVIRDLLSNWEAFLHNQDDVDPLIKMAMAHYQFEAIHPFIDGNGRTGRVLNILYLIDQQLLSAPILYLSRYIVAHKQDYYRLLLNVTTQQEWQPWIIFILNAVEQTAKWTTHKIAAARELIAHTTEYVRQQLPKIYSHELVQVIFEQPYCRIQNLVESGLAKRQTASVYLKQLCDIGVLEEVQSGKEKLFVHPKFVTLMTKDSNQFSRYAL”, the protein production result was “not failed”. For the sequence “MEYELLIREAEPKDAAELVAFLNRVSLETDFTSLDGDGILLTSEEMEIFLNKQASSDNQITLLAFLNGKIAGIVNITADQRKRVRHIGDLFIVIGKRYWNNGLGSLLLEEAIEWAQASGILRRLQLTVQTRNQAAVHLYQKHGFVIEGSQERGAYIEEGKFIDVYLMGKLIG”, the protein production entry was “not failed”. The entry for “MEYFLPLISIVTISYNAVNLIEKTILSVVEQDTADFEYIVIDGGSTDGTVEVIRKYENAISYWVSESDKGIFDAMNKALSVAKGDWVIFMNSGDCFYNNHVLSEIAIYMKDEETELIYGDVNLFSGKRNFIFKQRVSGININLNSVCHQTVFIRRKLHPYFDVRYKLTADHDIIFDFIKRGQYIHANIVIAKVLLGGVSHDVIKTSLEKLLISYRKGTFMDLLLSPLCNIYQVIKYFVKKLLISALPIELFNKMSRMKSKMESNFLEHHHHHH” is “not failed”; for “MEYGFWLPIFGGWLRNVNDESMPPTFEYAKQTAQAAEQLGFSTTLIAELNLNDIKGVSAPSLEAWTTAAALAAVTDRLEIMTAVRPGFHNPAVTAKMAANIDQLSNGRFTLNVVSAWWEEEAKQYGGVFTAHDERYDRTEEFVTILKGLWKEEEFSYKGNFYELHHTHLSPKPVQKQGIKLYAGGESKRGKEVIVNHADAYVMHGGTVEEVSVKIEDMKNRRKKVTEEPLQSFGLAAYVICRHTEEEALEEWRRITDVKDDALGYAGYQDFVSKSQLEQQVKLNDYSVSNRGLRPNLIGTPEQIAERILAFEKVGVTLLLLQFSPQLEEMKRFSEKVMPLVEAKRKELIT” it is “not failed”; for “MEYKKFVEARRELNEKVLSRGTLNTKRFFNLDSAVYRPGKLDVKTKELMGLVASTVLRCDDCIRYHLVRCVQEGASDEEIFEALDIALVVGGSIVIPHLRRAVGFLEELREMEKNGETISL” it is “not failed”.

On to “MEYNRNFFIAIGLSFGVLIAWHFFYVAPKQTELQQKQLIAQQLLKQQSAVSSPTANFSDSASTHESALIINHPMSPEIRDAELAKTNRVAIKTNELEGSINLVGAQFDDLLLKKYRLTVDKKSSEIALLNPKGFKETYLAEFGFTSSSLSKDALPQSDTRWHIEGNNTTLTPSTPVTLIYNNGQGQTFRRILSIDDHYMFTIEDSITNESDKPIYLSSYARVARAAPPEHTNATYLLHEGMIGIAGDSLKTEKYKTLAELNPNPDNGQKSMTFSKVIGGWVGITDKYWAVAVIPPQDKEYTSRFIYFDRLQTHYQSDLLGSLLTVAPNETKTITNRLFAGAKQVEIINHYQNDLKIKKFALLIDWGWFDFITKPMFSLIDILYKQTGNFGIAILLVTVLLKTLLFPLANKSYKSMARMKLIQPMLLEIKEKYPEDRTKQQQAIIELYKTQKINPLAGCWPMLVQFPIFFALYKVLYITIEMRHAPFFGWIQDLAAPDPTSLFNLFGLLPYTVPAFLMLGAWPLIMGITMFLQMRMNPAPQDQTQAMIFAWMPIVFTFMLASFPVGLVIYWAWNNILSMIQQGIMMKRQGVKIELFDNLKAMWRKSPKKEAHE”, for which the protein production result is “failed”. “MEYSFYDFLKLIGSLGLFLYGMKIMSEGLQKVAGDRLRGILTAMTTNRVTGVLTGVLITALIQSSSATTVMVVSFVNAGLLTLAESISVIMGANIGTTVTAWIISIFGFKVDMAAFALPLLAIALPLIFSGKSNRKSIGEFIFGFSFLFMGLSYLKANAPDLNANPEMLAFVQNYTDMGFFSVLLFLFIGTILTMIVQASAATMAITLIMCANGWISLELGAALVLGENIGTTITANLAALTANSQAKRAALAHFVFNVFGVIWVLIIFHPFMVFVNWVVDTFFHPGSAEVAISYKLSAFHSIFNICNVCLLIWGVKLIERTVCAIIRPKEEDEEPRLRFITGGMLSTAELSILQARKEIHLFSERIHRMFGMVQDLLHTEKDDDFNKLFSRIEKYENISDNMELEIANYLNQVSEGRLSSESKLQIRAMLREVTEIESIGDSCYNLARTISRKRQTNQDFTEKQYEHIHFMMKLTNDALSQMIVVVEKPEHQSIDVNKSFNIENEINNYRNQLKNQNILDVNNKEYDYQMGVYYMDIIAECEKLGDYVVNVVEASSDVKEKKAS”: the protein production result is “failed”. Regarding “MEYYNLILYLLVFGADMLIILQTYNEIKMWKTVKGNFVGKVSIIVPIKGIDTRLERNIESLLSQDYPYPYEVIYVVEKGDEVENILKKYNVKIVYSDFNCDSCSGKIRAQISGLLRASNDIIVFADSDTWYPRYWLRNLISPLDKYDTTTTFSWPFPSRITLSNLIRAGFWTLGFESQSLQSSRFLWGGSMALRREFFDNEVLDELSKEWCDDCTLTRIIKRRGGKIGFVMSAIPLNVYDENSLISWSSRQIITILAYSPRGARAYLVAGTFFALILIYSLVYLNIVTFTPYILWIVKNVIRGVKYPKQALIASLMTILAIPYALFLLVFNWNRREVYWRGKRYIVKPLREK”, the protein production entry is reported as “failed”. For the sequence “MFAAAVSFVALLLFTIGLYGVMTSRVGIKMLISIEIMINSAILSIIGIGSYFYSSSVQIDPYVFALFAIAIGVVESAVGLGLLVIVYRKFGKIDISLLKEIRW”, the protein production result is given as “failed”. Consider “MFAHQNASFPPRPEGRGGKEAVFRLTVFCIITFSSLICEAMKRAYKYRFYPTTEQAELLAQTFGCVRFVYNSILRWRTDAYYERKEKIGYLQANARLTALKKEPEFAWLNDVSCVPLQQSLRHQQTAFANFFAGRAAYPAFKSKRHKQAAEFTASAFKYRDGKLYMAKNKIPLDVRWSRPLPSVPSTVTISKDAAGRYFVSCLCEFEPASLPITSSMVGIDVGLKDLFVTDTGFRSGNPRHTAKYAARLALLQRRLSKKAKGSKNRAKAHLKVARLHAKIADCRLDALHKATRKLINDNQVVCVESLKVRNMIRNPSLSKAIADASWGELVRQLRYKGEWAGRSVVAIDQFFPSSKRCSCCGFIMKKMPLDVRKWQCPECGTDHDRDVNAARNIKAAGLAVLAHGEPVNPESLKAALEHHHHHH”, for which the protein production entry is “failed”.

On to “MFALCDVNAFYASCETVFRPDLWGKPVVVLSNNDGCVIARNAEAKALGVKMGDPWFKQKDLFRRCGVVCFSSNYELYADMSNRVMSTLEELSPRVEIYSIDEAFCDLTGVRNCRDLTDFGREIRATVLQRTHLTVGVGIAQTKTLAKLANHAAKKWQRQTGGVVDLSNLERQRKLMSALPVDDVWGIGRRISKKLDAMGIKTVLDLADTDIRFIRKHFNVVLERTVRELRGEPCLQLEEFAPTKQEIICSRSFGERITDYPSMRQAICSYAARAAEKLRSEHQYCRFISTFIKTSPFALNEPYYGNSASVKLLTPTQDSRDIINAATRSLDAIWQAGHRYQKAGVMLGDFFSQGVAQLNLFDDNAPRPGSEQLMTVMDTLNAKEGRGTLYFAGQGIQQQWQMKRAMLSPRYTTRSSDLLRVK”, for which the protein production entry is on record as “failed”.

Source of the values: a protein production outcome set (Wang et al. 2014).
